US20130274692A1, “SUBCONJUCTIVAL IMPLANT FOR POSTERIOR SEGMENT DRUG DELIVERY” (priority 2010, published 2013)
Values after ≈ are worked out from the molar mass of the structure shown. Like-named read-outs stand apart in the source and are kept apart here.

How the values were obtained:
[1] = Solubility of triamcinolone acetonide; format: physicochemical; conditions: saline or isotonic; 37 C in 0.2 M potassium chloride
Description: Consider a device with 10 uL reservoir volume loaded with 0.4 mg using a commercial drug product (40 mg/mL triamcinolone acetonide). […] The target release rate is 1 ug/day based upon published clinical data. As an example, consider the 0.2 media grade stainless steel characterized in Example 8 with P/F=0.12 and a thickness of 0.5 mm. […] This could be achieved with a cylindrical device having an inner diameter of 2 mm and a length of porous tubing of 1 mm. Alternatively, the end of the device could be a porous cup with height of 0.8 mm (0.5 mm thick porous face plus 0.3 mm length) of porous tubing.

[2] = test system: laser photocoagulation treatment-induced Grade IV choroidal neovascularization (CNV) lesions; conditions: intravitreal injection, all doses tested; cited from earlier work
[3] = cited from earlier work
[4] = human eye (Lucentis package insert); listed as ranibizumab; cited from earlier work

solubility [1]	Compound	development of Grade IV CNV lesions [2]	Half-life ([3]; monkey model (Gaudreault et al.), parameter of Simulations 1-5)	half-life in the vitreous ([3]; rabbit and monkey, listed as ranibizumab)	half-life in the vitreous [4]
19 µg/mL (≈ 43.7 µM)	CC1(C)O[C@@H]2C[C@H]3[C@@H]4CCC5=CC(=O)C=C[C@]5(C)[C@@]4(F)[C@@H](O)C[C@]3(C)[C@]2(C(=O)CO)O1 [triamcinolone acetonide]	–	–	–	–
–	ranibizumab [Lucentis]	completely inhibited	63.1 h	approximately 3 days	~220 h
